Measured values: doi:10.1101/768341

Molecular target: GST-TRAF6 (mouse) (UniProt P70196)
Experiment: SPR

UniProt P70196, sequence (P70196 whole entry): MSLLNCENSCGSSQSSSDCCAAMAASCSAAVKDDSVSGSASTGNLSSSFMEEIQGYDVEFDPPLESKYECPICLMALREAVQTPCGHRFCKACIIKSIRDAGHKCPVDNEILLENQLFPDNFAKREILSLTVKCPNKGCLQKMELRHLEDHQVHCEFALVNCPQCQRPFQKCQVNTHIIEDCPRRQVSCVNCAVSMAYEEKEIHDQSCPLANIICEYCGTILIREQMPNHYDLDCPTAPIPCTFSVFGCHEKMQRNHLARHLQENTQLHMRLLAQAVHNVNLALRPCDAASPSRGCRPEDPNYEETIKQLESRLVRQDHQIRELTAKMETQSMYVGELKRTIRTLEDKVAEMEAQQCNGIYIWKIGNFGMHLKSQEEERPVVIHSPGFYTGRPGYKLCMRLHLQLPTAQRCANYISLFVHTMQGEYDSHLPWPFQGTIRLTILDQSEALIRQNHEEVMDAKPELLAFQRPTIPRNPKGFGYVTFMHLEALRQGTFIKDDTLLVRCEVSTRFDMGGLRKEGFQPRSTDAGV

Kd: 88 µM
stoichiometry N: 1
Substance: neuroplastin intracellular peptide containing the TRAF6 binding motif
